For one assay, the system named is PD disability. Briefly: Primate PD disability (anti-parkinsonian effect of L-DOPA). It is filed as in vivo. Conditions: with L-DOPA; n=4; p>0.05. The text has this:
(§1) FIG. 18. […] Data are represented as median.

For assay [1], the system named is primate dyskinetic scores. Briefly: Primate dyskinesia scores. It counts as in vivo. The note with it: with L-DOPA; n=4.
From the text: FIG. 12. Plot of sum of primate dyskinesia scores (median) as a function of time (Fr=11.64, n=4; p<0.01, Friedman's test).
as §1

The subject of another assay is iSPNs. The experiment in a line: Spike-timing-dependent LTD induction (post-pre pairing) in iSPNs, ex vivo slices. It counts as cell-based, mice. The note with it: MT3 100 nM. As for the experimental part:
Mice were deeply anesthetized intraperitoneally with a mixture of ketamine (50 mg kg−1) and xylazine (4 mg kg−1) and perfused transcardially with 5-10 ml of ice-cold artificial CSF (aCSF) comprising (in mM): 125 NaCl, 2.5 KCl, 1.25 NaH2PO4, 2.0 CaCl2, 1.0 MgCl2, 26 NaHCO3 and 10 glucose (305 mOsm l^−1). Parasagittal corticostriatal slices (250 μm) were cut in ice-cold external solution containing (mM) 110 choline chloride, 26 NaHCO3, 1.25 NaH2PO4, 2.5 KCl, 0.5 CaCl2, 7 MgCl2, 11.6 sodium ascorbate, 3.1 sodium pyruvate and 5 glucose (305 mOsm l^−1). Slices were then transferred to a holding chamber containing aCSF. After an incubation period at 34° C. for 30 min, the slices were then kept in the holding chamber at the room temperature for another 30 min before use.
(§2) To determine if M4Rs were modulating synaptic plasticity, a spike-timing-dependent plasticity (STDP) paradigm was used. […] Once identified, neurons were monitored and controlled with perforated-patch recording to preserve intracellular signaling mechanisms and to allow stable, long-term monitoring of synaptic strength (FIG. 1A).

Assay [2] relates to dSPN glutamatergic synapses. Briefly: Spike-timing-dependent LTD induction (post-pre pairing) in dSPNs, ex vivo corticostriatal slices, perforated-patch or whole-cell recording. It is filed as cell-based, mice.
From the text: Male C57Bl/6 and FVB mice expressing tdTomato or eGFP under control of either the Drd1 or Drd2 receptor regulatory elements were used. All the mice used for the study were hemizygous for these transgenes. For some experiments, D1-tdTomato BAC mice were crossed with a transgenic line expressing Cre recombinase under control of the ChAT promoter. All mice were 8-10 weeks of age before stereotaxic surgery. Animal use procedures were reviewed and approved by the Northwestern Institutional Animal Care and Use Committee.
Slices were then transferred to a holding chamber containing aCSF. After an incubation period at 34° C. for 30 min, the slices were then kept in the holding chamber at the room temperature for another 30 min before use.
Individual slices were transferred to a recording chamber and were continuously perfused (2-3 ml min^−1) with aCSF for the duration of the experiment. Experiments were performed in the dorsolateral striatum at elevated temperature (30-31° C.).
All the recordings were made using a MultiClamp 700 A amplifier, and signals were filtered at 2 kHz and digitized at 10 kHz. Data were excluded when the series resistance changed >20% over the time course of the experiment. […] Capacitance current was continuously monitored during perforation by applying a 5-10 mV pulse from a holding potential of −70 mV. The amplifier bridge circuit was adjusted to compensate for series resistance and continuously monitored during recordings. Electrode capacitance was also compensated. Data were excluded when the input resistance (Ri) changed >20% over the time course of the experiment.
Data analysis was conducted with Igor Pro 6 (Wavemetrics, Lake Oswego, Oreg.) and Clampfit 9 (Molecular Devices). EPSP amplitude was calculated from 50-60 sweeps immediately before the start of induction and 20-30 min after the end of induction. The change in EPSP amplitude was calculated by averaging EPSP values after the induction and normalized to the average baseline EPSP amplitude. Compiled data were expressed as mean±s.e.m. Statistical tests were performed using Excel (Microsoft, Redmond, Wash.) and SigmaStat (Systat, San Jose, Calif.). Non-parametric Mann-Whitney or Wilcoxon tests were used to assess the experiment results, using a probability threshold of 0.05.
as §2
Synaptic plasticity was induced by pairing local stimulation of glutamatergic afferent fibers with postsynaptic spikes evoked by short bursts of intracellular current injection that were repeated at 5 Hz (FIGS. 1B, 4A).

“Also recorded” adds a separate entry of the source.

The values that follow come from patent US9987242B2, “Treatment of Levodopa-induced Dyskinesias” (NORTHWESTERN UNIVERSITY, priority 2015, dated 2018).

Turning to `Cc1nnc2sc(C(=O)NCc3ccc(-c4cccnc4F)cc3)c(N)c2c1C` [VU0476406], in the assay with PD disability, the “anti-parkinsonian effect of L-DOPA on PD disability” value was “did not occur at the expense of anti-parkinsonian effect of L-DOPA”. For the same molecule, the primate dyskinetic scores result in assay [1] is on record as “reduction in primate dyskinetic scores”.

B1: muscarinic toxin 3 (protein, UniProt P81031 1-65, looked up)
Muscarinic toxin 3: LTCVTKNTIFGITTENCPAGQNLCFKRWHYVIPRYTEITRGCAATCPIPENYDSIHCCKTDKCNE
In the case of B1, the “LTD induction in iSPNs” value in the assay with iSPNs is recorded as “LTD was induced”. In addition, the “LTD induction in dSPNs” value in assay [2] (MT3 100 nM with CNO) is reported as “LTD was blunted”. Moreover, the “LTD induction in dSPNs (EPSP amplitude)” value in assay [2] (MT3 100 nM with physostigmine 10 μM + VU10010 5 μM, 20 repetitions) is listed as “induction was blunted”; in assay [2] (post-pre pairing, MT3 100 nM along with SCH23390) it was “blocked induction of LTD; also recorded: LTD was disrupted”.
